Ends that are not written are not given here.
Columns and labels:
[1] = biological target: T1, hDMX_(1-200) (human, UniProt O15151 1-200); assay: fluorescence polarisation
T1 sequence (looked up): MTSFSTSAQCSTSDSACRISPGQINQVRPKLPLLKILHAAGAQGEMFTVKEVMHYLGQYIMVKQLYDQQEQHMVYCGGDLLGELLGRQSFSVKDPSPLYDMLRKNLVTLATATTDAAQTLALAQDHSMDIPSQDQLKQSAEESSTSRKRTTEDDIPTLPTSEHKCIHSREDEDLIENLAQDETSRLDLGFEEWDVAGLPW

[2] = biological target: T1, hDMX_(1-200); assay: fluorescence polarisation; remark: listed apart in the source

Binder	Kd [1] [nM]	IC50 [2] [nM]
MRPFMDYWEGLN (also: fluorescent label (flu), position not given here) [p53 12/1^flu]	237 ± 21.5	
MRPFMDYWEGLN [p53 12/1]		3870 ± 389
SQETFSDLWKLLPENNV (peptide, UniProt P04637 15-31, looked up, also: fluorescent label (flu), position not given here) [p53AD15−31^flu]	841 ± 28.8	
